{
  "source": "patent US20230118302",
  "about": "(published 2023)",
  "binders": {"B1": {"name": "v10014 (antibody, V domains shown)", "VH": "EVQLVESGGGLVQPGGSLRLSCAASGFTFADYTMDWVRQAPGKGLEWVADVNPNSGGSIYNQRFKGRFTLSVDRSKNTLYLQMNSLRAEDTAVYYCARNLGPSFYFDYWGQGTLVTVSS", "VL": "DIQMTQSPSSLSASVGDRVTITCKASQDVSIGVAWYQQKPGKAPKLLIYSASYRYTGVPSRFSGSGSGTDFTLTISSLQPEDFATYYCQQYYIYPATFGQGTKVEIK"}, "B2": {"name": "v10000 (antibody)", "chain 1": "EVQLVESGGGLVQPGGSLRLSCAASGFTFADYTMDWVRQAPGKGLEWVGDVNPNSGGSIYNQRFKGRFTFSVDRSKNTLYLQMNSLRAEDTAVYYCARNLGPSFYFDYWGQGTLVTVSSASTKGPSVFPLAPSSKSTSGGTAALGCLVKDYFPEPVTVSWNSGALTSGVHTFPAVLQSSGLYSLSSVVTVPSSSLGTQTYICNVNHKPSNTKVDKKVEPKSCDKTHTCPPCPAPELLGGPSVFLFPPKPKDTLMISRTPEVTCVVVDVSHEDPEVKFNWYVDGVEVHNAKTKPREEQYNSTYRVVSVLTVLHQDWLNGKEYKCKVSNKALPAPIEKTISKAKGQPREPQVYVYPPSRDELTKNQVSLTCLVKGFYPSDIAVEWESNGQPENNYKTTPPVLDSDGSFALVSKLTVDKSRWQQGNVFSCSVMHEALHNHYTQKSLSLSPG", "chain 2": "not shown", "chain 3": "not shown"}, "B3": {"name": "v7091 (antibody)", "chain 1": "EVQLVESGGGLVQPGGSLRLSCAASGFTFTDYTMDWVRQAPGKGLEWVADVNPNSGGSIYNQRFKGRFTLSVDRSKNTLYLQMNSLRAEDTAVYYCARNLGPSFYFDYWGQGTLVTVSSASTKGPSVFPLAPSSKSTSGGTAALGCLVKDYFPEPVTVSWNSGALTSGVHTFPAVLQSSGLYSLSSVVTVPSSSLGTQTYICNVNHKPSNTKVDKKVEPKSCDKTHTCPPCPAPELLGGPSVFLFPPKPKDTLMISRTPEVTCVVVDVSHEDPEVKFNWYVDGVEVHNAKTKPREEQYNSTYRVVSVLTVLHQDWLNGKEYKCKVSNKALPAPIEKTISKAKGQPREPQVYVYPPSRDELTKNQVSLTCLVKGFYPSDIAVEWESNGQPENNYKTTPPVLDSDGSFALVSKLTVDKSRWQQGNVFSCSVMHEALHNHYTQKSLSLSPG", "chain 2": "not shown", "chain 3": "not shown"}, "B4": {"name": "v7148 (antibody)", "chain 1": "EVQLVESGGGLVQPGGSLRLSCAASGFTFTDYTMDWVRQAPGKGLEWVADVNPNSGGSIYNQRFKGRFTLSVDRSKNTLYLQMNSLRAEDTAVYYCARNLGPSFYFDYWGQGTLVTVSSASTKGPSVFPLAPSSKSTSGGTAALGCLVKDYFPEPVTVSWNSGALTSGVHTFPAVLQSSGLYSLSSVVTVPSSSLGTQTYICNVNHKPSNTKVDKKVEPKSCDKTHTCPPCPAPELLGGPSVFLFPPKPKDTLMISRTPEVTCVVVDVSHEDPEVKFNWYVDGVEVHNAKTKPREEQYNSTYRVVSVLTVLHQDWLNGKEYKCKVSNKALPAPIEKTISKAKGQPREPQVYVYPPSRDELTKNQVSLTCLVKGFYPSDIAVEWESNGQPENNYKTTPPVLDSDGSFALVSKLTVDKSRWQQGNVFSCSVMHEALHNHYTQKSLSLSPG", "chain 2": "not shown", "chain 3": "not shown", "modifications": "v7091 conjugated to SMCC-DM1"}},
  "key": {"HER2 ECD [1]": {"molecular_target": "T1, HER2 ECD (human, UniProt P04626)", "assay": "SPR"}, "HER2 ECD [2]": {"molecular_target": "T1, HER2 ECD", "assay": "SPR", "remark": "listed apart in the source"}, "HER2 on cells [3]": {"molecular_target": "T2, HER2 on cells (human, UniProt P04626)", "assay": "FACS, MCF7"}, "HER2 on cells [4]": {"molecular_target": "T2, HER2 on cells", "assay": "FACS, WI-38"}, "HER2 on cells [5]": {"molecular_target": "T2, HER2 on cells", "assay": "FACS, MCF7", "remark": "listed apart in the source"}, "CD16a V158": {"molecular_target": "CD16a V158 (human, UniProt P08637)", "sequence (P08637 17-208 F176V)": "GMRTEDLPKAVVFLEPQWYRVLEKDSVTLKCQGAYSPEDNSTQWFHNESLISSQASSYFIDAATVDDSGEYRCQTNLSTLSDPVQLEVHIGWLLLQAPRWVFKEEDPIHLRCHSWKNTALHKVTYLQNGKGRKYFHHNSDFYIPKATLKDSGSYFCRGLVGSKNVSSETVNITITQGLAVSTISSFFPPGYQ", "assay": "SPR"}},
  "note": "Like-named read-outs stand apart in the source and are kept apart here.",
  "data": [
    {"binder": "B1", "values": [
      {"measurement": "Kd", "setting": "HER2 ECD [1]", "value": 2, "unit": "nM"},
      {"measurement": "Kd", "setting": "HER2 ECD [2]", "value": 2.1, "unit": "nM"}
    ]},
    {"binder": "B2", "values": [
      {"measurement": "Kd", "setting": "HER2 on cells [3]", "value": 6.8, "unit": "nM"},
      {"measurement": "Kd", "setting": "HER2 on cells [4]", "value": 8.4, "unit": "nM"},
      {"measurement": "Kd", "setting": "HER2 on cells [5]", "value": 3.7, "unit": "nM"}
    ]},
    {"binder": "B3", "values": [
      {"measurement": "Kd", "setting": "CD16a V158", "value": 120, "unit": "nM"}
    ]},
    {"binder": "B4", "values": [
      {"measurement": "Kd", "setting": "CD16a V158", "value": 120, "unit": "nM"}
    ]}
  ]
}
